Laboratory results reported in article doi:10.1101/2022.07.07.499247.
Like-named read-outs stand apart in the source and are kept apart here.

Assays:
[1] = molecular target: recombinant alpha tubulin of Plasmodium falciparum (Plasmodium falciparum); test: MST
[2] = molecular target: recombinant alpha tubulin of Plasmodium falciparum (Plasmodium falciparum); test: MST; remark: listed apart in the source

B1: recombinant Plasmodium falciparum cold shock protein PfCoSP (PF3D7_0109600) (natural protein)
chain: MLRRKIHIHFNSYKKHFFSQLINKEKHDKITGNVIMFDKRKGYGFIKPNDGGPDIFVHYTDICQSRTFEVTNEEKKKLAWNANMDITQKKEEYNFEYDNNNNNNNNKHNKKKEEIKKEFKYLVPGERVKFSVIYDEKSNSSKAINVDYID
[1]
  Kd: 210 nM
[2]
  Kd: 274 nM
